Assay results published in patent US20220324978A1.
Numbering of substitutions follows the chain as printed.

T1: Histidine-tagged canine PD-1 protein (canine)
T1 sequence: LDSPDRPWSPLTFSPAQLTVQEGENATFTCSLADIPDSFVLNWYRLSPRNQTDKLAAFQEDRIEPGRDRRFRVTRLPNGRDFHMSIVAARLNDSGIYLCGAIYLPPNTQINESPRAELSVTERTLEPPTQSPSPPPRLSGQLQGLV

B1: 4A7-mHvKv-dIgG4 (antibody, V domains shown)
VH: EVQLVESGGDLVKPGGSLKLSCVASGFPFSNFGMSWVRQTPDKRLEWVATISSGSSYSYYSDSVKGRFTISRDNAKNTLFLQMNSLKSEDTAIFYCARGESRFAYWGQGTLVTVSA
VL: DVVITQDELSNPVTSGESVSISCRSNKSLLYEDGQTYLNWFLQRPGQSPQLLIYLMSTRASGVSDRFSGSGSGTDFTLEISEVRAEDVGVYYCQQLIEYPLTFGAGTKLELKR
B2: 1B9-H1K1-IgG4 (antibody, V domains shown)
VH: EVQLVQSGAEVKKPGASVKVSCKTSGYTFTSFWMNWVRLAPGAGLDWIGRVDPYDSETHYNQKFKDRVILTVDTSTSTAYMELSSLRAGDIAVYYCATQFGFSWLAYWGQGTLVTVSA
VL: EIVMTQSPGSLAGSAGESVSINCKSSQSLLYSSNQKNYLAWYQQKPGESPKLLIYWASTRESGVPDRFSGSGSGTDFTLTINNLQAEDVGVYYCQQYYSNPYTFGQGTKLEIK
B3: 1B9-H1K2-IgG4 (antibody, V domains shown)
VH: B2 VH
VL: B2 VL with E1D, G13V, L84V
B4: 1B9-H2K1-IgG4 (antibody, V domains shown)
VH: B2 VH with T24A, D46E, V68A
VL: B2 VL
B5: 1B9-H2K2-IgG4 (antibody, V domains shown)
VH: B2 VH with T24A, D46E, V68A
VL: B2 VL with E1D, G13V, L84V
B6: 1D8-H1K1-dIgG4 (antibody, V domains shown)
VH: EVQLVESGGDLVKPVGSLRLSCVASGFTFNNFGMSWVRQAPGKGLQWVATLSSGSSYTYYSDSVKGRFTISRDNAKNTLYLQMNSLRAEDTAMYYCTRGESRFAYWGQGTLVTVSA
VL: GVVITQDPLSLAVTPGELVTISCRSSKSLLYKDGKTYLNWYLQKPGQTPRLLIYLMSTRASGVSDRFSGSGSGTDFTLKISRVEAEDVGVYYCQQLIEYPLTFGAGTKVELK
B7: 1D8-H1K2-dIgG4 (antibody, V domains shown)
VH: B6 VH
VL: B6 VL with Y41F
B8: 1D8-mHvKv-dIgG4 (antibody, V domains shown)
VH: B6 VH with V15G, R19K, V23A, A40N, G42D, G44R, Q46E, R87K, A88S
VL: B1 VL with D1G, N26S, E32K, Q35K, E82R, R84K
B9: 1D8-H2K1-dIgG4 (antibody, V domains shown)
VH: B6 VH with Q46E
VL: B6 VL
B10: 1D8-H2K2-dIgG4 (antibody, V domains shown)
VH: B6 VH with Q46E
VL: B6 VL with Y41F

Molecular target: T1, Histidine-tagged canine PD-1 protein (canine)
Test: SPR (Biacore), dPD-1-His amine-coupled to CM5 chip, antibody injected, 1:1 Langmuir fit

Binder	Kd [nM]	koff [s⁻¹]	kon [M⁻¹ s⁻¹]
B1	0.29	0.000152	525000
B2	1.07	0.000454	424000
B3	1.03	0.00049	475000
B4	0.768	0.000454	591000
B5	0.745	0.00043	577000
B6	4.57	0.00309	675000
B7	4.5	0.00248	550000
B8	0.094	0.000135	1.44e+06
B9	5.36	0.00348	650000
B10	4.34	0.00262	604000
